Consider 3 substances from patent US20210252150A1.

Test [1] deals with HA of A/Texas/50/2012 (H3N2) (influenza A virus (H3N2)).
Test [2] has as its target HA of A/Solomon Islands/03/2006 (H1N1) (influenza A virus (H1N1)).
The target of test [3] is HA of A/Texas/36/1991 (H1N1) (influenza A virus (H1N1)).

Regarding “rFluA-20 light chain mutant N53A (antibody)”, the EC50 in test [1] is 0.09 µg/mL; in test [2], 0.05 µg/mL; in test [3] it was 0.04 µg/mL.
The corresponding values for “rFluA-20 heavy chain mutant C101A (antibody)” are 0.39 µg/mL, 0.2 µg/mL and 0.15 µg/mL.
Take “rFluA-20 light chain mutant Q55A (antibody)”: the EC50 fold over wild-type rFluA-20 in test [2] is more than 100 fold. The substance further showed an EC50 in test [3] of 0.23 µg/mL.

One may read the EC50 as the concentration needed to bring the measured effect to its halfway point.
